Patent US20230374564

Biological target: T1, VWF73-G6PDH conjugate (inhibited G6PDH-VWF reporter enzyme complex), P11411
T1 chain 1: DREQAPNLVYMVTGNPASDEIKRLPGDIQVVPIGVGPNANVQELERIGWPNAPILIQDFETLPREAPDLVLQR
T1 chain 2: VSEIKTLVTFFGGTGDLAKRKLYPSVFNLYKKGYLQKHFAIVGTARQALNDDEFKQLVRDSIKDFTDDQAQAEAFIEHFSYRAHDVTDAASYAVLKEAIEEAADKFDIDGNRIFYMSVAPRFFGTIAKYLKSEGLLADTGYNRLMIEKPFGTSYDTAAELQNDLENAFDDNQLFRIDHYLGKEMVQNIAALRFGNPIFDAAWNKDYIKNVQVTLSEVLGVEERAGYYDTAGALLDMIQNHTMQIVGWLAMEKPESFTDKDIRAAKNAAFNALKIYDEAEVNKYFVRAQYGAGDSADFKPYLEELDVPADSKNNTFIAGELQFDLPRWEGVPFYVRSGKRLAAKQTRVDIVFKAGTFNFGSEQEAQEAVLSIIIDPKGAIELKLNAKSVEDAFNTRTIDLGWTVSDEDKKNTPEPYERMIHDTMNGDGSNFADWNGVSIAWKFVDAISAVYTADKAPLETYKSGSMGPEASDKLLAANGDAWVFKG

B1: ADAMTS-13 (A Disintegrin And Metalloproteinase with a Thrombospondin type 1 motif, member 13) (protein)
chain: AAGGILHLELLVAVGPDVFQAHQEDTERYVLTNLNIGAELLRDPSLGAQFRVHLVKMVILTEPEGAPNITANLTSSLLSVCGWSQTINPEDDTDPGHADLVLYITRFDLELPDGNRQVRGVTQLGGACSPTWSCLITEDTGFDLGVTIAHEIGHSFGLEHDGAPGSGCGPSGHVMASDGAAPRAGLAWSPCSRRQLLSLLSAGRARCVWDPPRPQPGSAGHPPDAQPGLYYSANEQCRVAFGPKAVACTFAREHLDMCQALSCHTDPLDQSSCSRLLVPLLDGTECGVEKWCSKGRCRSLVELTPIAAVHGRWSSWGPRSPCSRSCGGGVVTRRRQCNNPRPAFGGRACVGADLQAEMCNTQACEKTQLEFMSQQCARTDGQPLRSSPGGASFYHWGAAVPHSQGDALCRHMCRAIGESFIMKRGDSFLDGTRCMPSGPREDGTLSLCVSGSCRTFGCDGRMDSQQVWDRCQVCGGDNSTCSPRKGSFTAGRAREYVTFLTVTPNLTSVYIANHRPLFTHLAVRIGGRYVVAGKMSISPNTTYPSLLEDGRVEYRVALTEDRLPRLEEIRIWGPLQEDADIQVYRRYGEEYGNLTRPDITFTYFQPKPRQAWVWAAVRGPCSVSCGAGLRWVNYSCLDQARKELVETVQCQGSQQPPAWPEACVLEPCPPYWAVGDFGPCSASCGGGLRERPVRCVEAQGSLLKTLPPARCRAGAQQPAVALETCNPQPCPARWEVSEPSSCTSAGGAGLALENETCVPGADGLEAPVTEGPGSVDEKLPAPEPCVGMSCPPGWGHLDATSAGEKAPSPWGSIRTGAQAAHVWTPAAGSCSVSCGRGLMELRFLCMDSALRVPVQEELCGLASKPGSRREVCQAVPCPARWQYKLAACSVSCGRGVVRRILYCARAHGEDDGEEILLDTQCQGLPRPEPQEACSLEPCPPRWKVMSLGPCSASCGLGTARRSVACVQLDQGQDVEVDEAACAALVRPEASVPCLIADCTYRWHVGTWMECSVSCGDGIQRRRDTCLGPQAQAPVPADFCQHLPKPVTVRGCWAGPCVGQGTPSLVPHEEAAAPGRTTATPAGASLEWSQARGLLFSPAPQPRRLLPGPQENSVQSSACGRQHLEPTGTIDMRGPGQADCAVAIGRPLGEVVTLRVLESSLNCSAGDMLLLWGRLTWRKMCRKLLDMTFSSKTNTLVVRQRCGRPGGGVLLRYGSQLAPETFYRECDMQLFGPWGEIVSPSLSPATSNAGGCRLFINVAPHARIAIHALATNMGAGTEGANASYILIRDTHSLRTTAFHGQQVLYWESESSQAEMEFSEGFLKAQASLRGQYWTLQSWVPEMQDPQSWKGKEGT
ADAMTS-13 activity (% of the norm); plasma of TTP patient 01: TTP patient 01 with 9% of the norm | ADAMTS-13 activity (% of the norm); plasma of TTP patient 02: TTP patient 02 with 7% of the norm | ADAMTS-13 activity (% of the norm); plasma of patient with ADAMTS-13 autoantibodies: patient with 21% of the norm | reactivation of G6PDH activity by cleavage of coupled VWF73 (absorption at 340 nm): occurs in a concentration-dependent manner with respect to ADAMTS-13 activity | Δ mOD/min Average; 0% normal plasma in ADAMTS-13-deficient plasma: 208 Δ mOD/min | Δ mOD/min Average; 5% normal plasma in ADAMTS-13-deficient plasma: 215 Δ mOD/min | Δ mOD/min Average; 10% normal plasma in ADAMTS-13-deficient plasma: 220 Δ mOD/min | Δ mOD/min Average; 25% normal plasma in ADAMTS-13-deficient plasma: 232 Δ mOD/min | Δ mOD/min Average; 50% normal plasma in ADAMTS-13-deficient plasma: 256 Δ mOD/min | Δ mOD/min Average; 75% normal plasma in ADAMTS-13-deficient plasma: 286 Δ mOD/min | Δ mOD/min Average; 100% normal plasma in ADAMTS-13-deficient plasma: 311 Δ mOD/min | Δ mOD/min Average; plasma of Healthy donor 01: 310 Δ mOD/min | Δ mOD/min Average; plasma of Healthy donor 02: 311 Δ mOD/min | Δ mOD/min Average; plasma of Healthy donor 03: 307 Δ mOD/min | Δ mOD/min Average; plasma of Healthy donor 04: 310 Δ mOD/min | Δ mOD/min Average; plasma of Healthy donor 05: 314 Δ mOD/min | Δ mOD/min Average; plasma of Patient with ADAMTS-13 autoantibodies: 228 Δ mOD/min | Δ mOD/min Average; plasma of TTP patient 01: 218 Δ mOD/min | Δ mOD/min Average; plasma of TTP patient 02: 216 Δ mOD/min | Δ mOD/min Measurement 1; 0% normal plasma in ADAMTS-13-deficient plasma: 208 Δ mOD/min | Δ mOD/min Measurement 1; 5% normal plasma in ADAMTS-13-deficient plasma: 216 Δ mOD/min | Δ mOD/min Measurement 1; 10% normal plasma in ADAMTS-13-deficient plasma: 221 Δ mOD/min | Δ mOD/min Measurement 1; 25% normal plasma in ADAMTS-13-deficient plasma: 232 Δ mOD/min | Δ mOD/min Measurement 1; 50% normal plasma in ADAMTS-13-deficient plasma: 255 Δ mOD/min | Δ mOD/min Measurement 1; 75% normal plasma in ADAMTS-13-deficient plasma: 286 Δ mOD/min | Δ mOD/min Measurement 1; 100% normal plasma in ADAMTS-13-deficient plasma: 310 Δ mOD/min | Δ mOD/min Measurement 1; plasma of Healthy donor 01: 309 Δ mOD/min | Δ mOD/min Measurement 1; plasma of Healthy donor 02: 310 Δ mOD/min | Δ mOD/min Measurement 1; plasma of Healthy donor 03: 305 Δ mOD/min | Δ mOD/min Measurement 1; plasma of Healthy donor 04: 312 Δ mOD/min | Δ mOD/min Measurement 1; plasma of Healthy donor 05: 315 Δ mOD/min | Δ mOD/min Measurement 1; plasma of Patient with ADAMTS-13 autoantibodies: 227 Δ mOD/min | Δ mOD/min Measurement 1; plasma of TTP patient 01: 218 Δ mOD/min | Δ mOD/min Measurement 1; plasma of TTP patient 02: 220 Δ mOD/min | Δ mOD/min Measurement 2; 0% normal plasma in ADAMTS-13-deficient plasma: 208 Δ mOD/min | Δ mOD/min Measurement 2; 5% normal plasma in ADAMTS-13-deficient plasma: 216 Δ mOD/min | Δ mOD/min Measurement 2; 10% normal plasma in ADAMTS-13-deficient plasma: 221 Δ mOD/min | Δ mOD/min Measurement 2; 25% normal plasma in ADAMTS-13-deficient plasma: 233 Δ mOD/min | Δ mOD/min Measurement 2; 50% normal plasma in ADAMTS-13-deficient plasma: 257 Δ mOD/min | Δ mOD/min Measurement 2; 75% normal plasma in ADAMTS-13-deficient plasma: 288 Δ mOD/min | Δ mOD/min Measurement 2; 100% normal plasma in ADAMTS-13-deficient plasma: 312 Δ mOD/min | Δ mOD/min Measurement 2; plasma of Healthy donor 01: 310 Δ mOD/min | Δ mOD/min Measurement 2; plasma of Healthy donor 02: 311 Δ mOD/min | Δ mOD/min Measurement 2; plasma of Healthy donor 03: 309 Δ mOD/min | Δ mOD/min Measurement 2; plasma of Healthy donor 04: 311 Δ mOD/min | Δ mOD/min Measurement 2; plasma of Healthy donor 05: 312 Δ mOD/min | Δ mOD/min Measurement 2; plasma of Patient with ADAMTS-13 autoantibodies: 228 Δ mOD/min | Δ mOD/min Measurement 2; plasma of TTP patient 01: 219 Δ mOD/min | Δ mOD/min Measurement 2; plasma of TTP patient 02: 215 Δ mOD/min | Δ mOD/min Measurement 3; 0% normal plasma in ADAMTS-13-deficient plasma: 207 Δ mOD/min | Δ mOD/min Measurement 3; 5% normal plasma in ADAMTS-13-deficient plasma: 214 Δ mOD/min | Δ mOD/min Measurement 3; 10% normal plasma in ADAMTS-13-deficient plasma: 219 Δ mOD/min | Δ mOD/min Measurement 3; 25% normal plasma in ADAMTS-13-deficient plasma: 233 Δ mOD/min | Δ mOD/min Measurement 3; 50% normal plasma in ADAMTS-13-deficient plasma: 254 Δ mOD/min | Δ mOD/min Measurement 3; 75% normal plasma in ADAMTS-13-deficient plasma: 286 Δ mOD/min | Δ mOD/min Measurement 3; 100% normal plasma in ADAMTS-13-deficient plasma: 311 Δ mOD/min | Δ mOD/min Measurement 3; plasma of Healthy donor 01: 311 Δ mOD/min | Δ mOD/min Measurement 3; plasma of Healthy donor 02: 312 Δ mOD/min | Δ mOD/min Measurement 3; plasma of Healthy donor 03: 306 Δ mOD/min | Δ mOD/min Measurement 3; plasma of Healthy donor 04: 309 Δ mOD/min | Δ mOD/min Measurement 3; plasma of Healthy donor 05: 314 Δ mOD/min | Δ mOD/min Measurement 3; plasma of Patient with ADAMTS-13 autoantibodies: 229 Δ mOD/min | Δ mOD/min Measurement 3; plasma of TTP patient 01: 218 Δ mOD/min | Δ mOD/min Measurement 3; plasma of TTP patient 02: 214 Δ mOD/min
